Results as given in paper PMC11443169 (Life Science Alliance, 2024).
Ends that are not written are not given here.

Columns and labels:
[1] = Recovery of Aβ variants for elution from reversed-phase HPLC under different conditions; assay type: physicochemical
From the text: Senile plaques, which are one of the key pathological features of Alzheimer’s disease (AD), are composed of amyloid β peptides (Aβs) with a variety of secondary and tertiary structures because of post-translational modifications ([Saido et al, 1995], [1996]). This heterogeneity appears to affect catabolism and aggregation rates, resulting in structural changes in plaques. […] In contrast, transgenic (Tg) mice overexpressing human APP with pathogenic mutations primarily accumulate Aβ1-40 and Aβ1-42 ([Sturchler-Pierrat et al, 1997]; [Kawarabayashi et al, 2001]). […] There is, however, some discrepancy among different reports regarding the quantity of Aβ variants, which vary depending on the methods employed. […] However, the use of a heated (50°C) basic solvent containing betaine and limited proteolysis using lysyl endopeptidase allows full recovery in HPLC and detection by mass spectrometry, respectively.
Supplementary file : Table S1. Recovery of various Aβ variants for elution from reversed-phase HPLC under different conditions. TFA, trifluoroacetic acid; TEA, triethylamine.

## Aβ1-40: amyloid β peptide 1-40
[1]; solvent TEA/betaine (basic), temperature 50℃
  Recovery for elution from reversed phase HPLC: 100%
[1]; solvent TFA, temperature 20℃
  Recovery for elution from reversed phase HPLC: 100%
[1]; solvent TFA, temperature 50℃
  Recovery for elution from reversed phase HPLC: 100%

## Aβ17L-42: Aβ17L-42 (p3 fragment), internally radiolabeled (LVFFAEDVGSNKGAIIGLMVGGVVIA; also: internally radiolabeled, site not given here; UniProt P05067 688-713, looked up, fragment)
Rat hippocampus
  Half-life (in vivo half-lives of Aβx-42): 34.69 min
